Target: T1, CD25 on human anaplastic large cell lymphoma Karpas-299 cells (human, UniProt P01589 22-272)
T1 construct: whole, on cells; Endogenous antigen on the cell line
T1 sequence (looked up): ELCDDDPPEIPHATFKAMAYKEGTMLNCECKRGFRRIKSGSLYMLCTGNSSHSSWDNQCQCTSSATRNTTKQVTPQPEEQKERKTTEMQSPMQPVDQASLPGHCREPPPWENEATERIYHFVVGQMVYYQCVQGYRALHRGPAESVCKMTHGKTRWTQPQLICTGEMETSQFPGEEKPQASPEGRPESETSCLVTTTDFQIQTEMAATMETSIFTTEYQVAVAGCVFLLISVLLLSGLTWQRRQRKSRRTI
Experiment: flow cytometry, serial dilution of antibody on Karpas-299 wt, ADCR and PBDR cells, Alexa Fluor 488 anti-human Fc secondary
Description: The cells were then washed and incubated with a F(ab′)2-Goat anti-Human IgG Fc Secondary Antibody conjugated to Alexa Fluor 488. After incubation for 1 hour on ice in the dark the cells were washed and run on a Fortessa X20 flow cytometer, and the mean fluorescence intensity (MFI) determined using the B530/30 laser/filter.

B1: HuMax-TAC mAb (antibody, V domains shown)
VH: QVQLVQSGAEVKKPGSSVKVSCKASGGTFSRYIINWVRQAPGQGLEWMGRIIPILGVENYAQKFQGRVTITADKSTSTAYMELSSLRSEDTAVYYCARKDWFDYWGQGTLVTVSS
VL: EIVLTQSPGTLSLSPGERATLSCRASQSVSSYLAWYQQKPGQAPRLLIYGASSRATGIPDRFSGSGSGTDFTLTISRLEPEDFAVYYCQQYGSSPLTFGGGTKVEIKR
notes: also called AB12; CD25 antibody
Question: Does B1 bind?
Answer: binds
